From the supplement of paper PMC9732359
± gives the uncertainty stated by the source.

Test: protein stability index of a GFP-peptide fusion (yeast GPS) (PSI 1-4); higher = more stable; sorted into four equal gates, so the index is relative within each strain
Outline: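 The protein stability index of a peptide was calculated by multiplying its read frequency in each gate by that gate's number and adding the products. The peptides were tiled 17-residue stretches of yeast proteins, fused downstream of GFP on a Cherry-expressing plasmid and carried in yeast as a pooled library. Mid-log cultures in leucine-free medium were sorted into four equal gates by GFP/Cherry ratio, and each gate's plasmids were PCR-amplified and Illumina-sequenced.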

Sequence	protein stability index (doa10∆)	protein stability index (pdr5∆)	protein stability index (san1∆)	protein stability index (ubr1∆)
VFLKHSLSIKLATLHYQ [RPN6]	2.22 ± 0.059	2.57 ± 0.067	1.71 ± 0.11	3.08 ± 0.055
PQRLQRKRHQRALKVRN [RPS6A]	2.96 ± 0.1	2.9 ± 0.069	2.64 ± 0.096	2.87 ± 0.046
GSMFSGDNTSDVDMEDR [RRI1]	2.01 ± 0.14	2.55 ± 0.074	2.51 ± 0.12	2.85 ± 0.16
LRDHALSLTAFTKNEEK [ITC1]	1.42 ± 0.042	1.76 ± 0.047	1.38 ± 0.076	1.86 ± 0.046
GNPYIELNQDRLGGDDL [SNF5]	3.05 ± 0.092	3.24 ± 0.098	3.03 ± 0.11	3.27 ± 0.049
ANEQLKLFNRIVERETN [CSN12]	2.5 ± 0.12	2.73 ± 0.16	1.71 ± 0.24	2.81 ± 0.15
NNSLSYHSGRLLIQGPK [ITC1]	2.45 ± 0.054	2.3 ± 0.048	2.47 ± 0.062	2.93 ± 0.051
LAEIKKTPLLKQYLSAS [RPL6B]	1.54 ± 0.038	1.55 ± 0.049	1.24 ± 0.094	1.51 ± 0.036
LIKQVPRLLGPQLSKAG [RPL1A]	1.98 ± 0.068	1.73 ± 0.06	1.78 ± 0.081	1.6 ± 0.059
EGLDELPKIIQLQGPQW [SOH1]	3.16 ± 0.068	3.35 ± 0.057	3.18 ± 0.043	3.15 ± 0.056
GKHNLTIWCVCDSYLDA [BRR2]	2.04 ± 0.059	2.26 ± 0.083	2.73 ± 0.093	2.31 ± 0.045
TTSVDVMLKGIVTALLE [SRP54]	1.27 ± 0.047	1.22 ± 0.056	1.18 ± 0.1	1.11 ± 0.04
FKELCYENKDNLTAGII [PRE3]	2.95 ± 0.044	2.95 ± 0.042	2.93 ± 0.034	2.83 ± 0.039
IEKGSTFGINLIYVNPF [FAS1]	2.58 ± 0.06	2.61 ± 0.068	2.71 ± 0.052	2.78 ± 0.04
EIDHQEYSPEILQIREE [RRP6]	3.19 ± 0.067	3.06 ± 0.069	3.21 ± 0.094	3.18 ± 0.048
TNSVRLFEVNPSQTLFS [SRP21]	2.65 ± 0.09	2.51 ± 0.078	2.2 ± 0.073	2.56 ± 0.047
SVTAQVYKIALRLTEQK [RPC82]	1.79 ± 0.15	2.19 ± 0.14	2.22 ± 0.19	
NFKDMSHVNKYGLIRGL [PRP8]	2 ± 0.069	1.47 ± 0.067	2.19 ± 0.13	1.16 ± 0.032
TVQSERAFQKQPHIFNN [RPS11A]	2.69 ± 0.051	2.58 ± 0.043	2.53 ± 0.045	2.79 ± 0.034
NALYDTLLESNLCKIIE [RPN6]	2.07 ± 0.068	2.48 ± 0.079	2.01 ± 0.065	2.41 ± 0.082
ISIYNMLPPKSVKFTHI [SSN2]	1.64 ± 0.069	1.76 ± 0.057	2.13 ± 0.066	2.29 ± 0.034
FPEENIIDAKTRNEQTT [MCD1]	3.29 ± 0.09	3.16 ± 0.057	3.19 ± 0.052	3.08 ± 0.054
LREEIFIANEGVHTGQF [RPL2A]	2.8 ± 0.084	2.84 ± 0.074	2.92 ± 0.06	3.03 ± 0.059
AYLLLNAAGNTPDATKI [RPP2A]	2.2 ± 0.038	2.17 ± 0.036	2.17 ± 0.051	2.49 ± 0.039
DLQRTQTLSEKEYQCSA [YIL149C/MLP2]	2.98 ± 0.1	2.97 ± 0.091	3.11 ± 0.069	2.96 ± 0.069
SNDPDVNNTRRRVYNRV [BRN1]	2.81 ± 0.14	3.52 ± 0.19	3 ± 0.14	3.69 ± 0.24

Sequence	protein stability index (doa10∆)	protein stability index (pdr5∆)	protein stability index (san1∆)	protein stability index (ubr1∆)
LFKTLFKKLTKDIFRYM [RPB2]	1.94 ± 0.061	1.53 ± 0.059	1.33 ± 0.13	1.66 ± 0.055
QFNAITGLNGSGKSNIL [SMC2]	3.31 ± 0.17	2.99 ± 0.13	3.18 ± 0.099	3.34 ± 0.067
QHLQQLKMQQQQQQQQQ [GAL11]	2.21 ± 0.077	2.23 ± 0.059	2.02 ± 0.12	2.09 ± 0.061
RDYSKEILGINLANEQP [SIR4]	2.71 ± 0.048	3.04 ± 0.044	3.07 ± 0.039	3.02 ± 0.036
SLEDKILRMGAFRTIES [RRI1]	2.24 ± 0.17	2.04 ± 0.2	1.83 ± 0.18	2.28 ± 0.073
IIESHLIQLQNIFKAEM [CSN9]	2.75 ± 0.1	3.14 ± 0.11	2.85 ± 0.088	2.74 ± 0.073
VSLTQLRCVKYLQETAI [RPC82]	1.82 ± 0.14	2.18 ± 0.1		3.1 ± 0.28
VYTAIYNYCVNKSRSSG [CDC53]	2.48 ± 0.074	2.62 ± 0.057	2.61 ± 0.053	2.71 ± 0.043
ENPTPEKGNAKMIDFAT [SIR3]	3.1 ± 0.11	2.99 ± 0.092	3.32 ± 0.072	3.03 ± 0.068
NISIITLELESFLEGSK [RGR1]	2.44 ± 0.054	2.48 ± 0.059	2.75 ± 0.059	2.94 ± 0.071
SVFGFRTQFGGGKSVGF [RPS24A]	2.56 ± 0.13	2.23 ± 0.076	3.31 ± 0.076	2.77 ± 0.088
GVLLPTRIKLLLTKNVS [RPS6A]	1.43 ± 0.11	1.49 ± 0.11		2.03 ± 0.11
NLQGDLQAIQEKLNKTD [ITC1]		3.33 ± 0.21	3.33 ± 0.17	3.2 ± 0.16
GDYGSAKCNSLLQLKYF [POP5]	2.31 ± 0.049	2.24 ± 0.056	2.23 ± 0.067	2.59 ± 0.071
LTIFDSVDESARIKDAF [YJL039C/NUP192]	3.01 ± 0.11	3.07 ± 0.094	3.19 ± 0.051	3.02 ± 0.093
ESTTEATGNESQDATKV [YLR335W/NUP2]	3.04 ± 0.071	3.23 ± 0.081	3.12 ± 0.11	3.21 ± 0.075
NSEISNLPKDKSGIPEF [SSN2]	2.98 ± 0.087	3 ± 0.11	2.9 ± 0.072	3.33 ± 0.076
ESGSTPISISNAPTFNP [YAR002W/NUP60]	2.25 ± 0.067	2.64 ± 0.061	1.98 ± 0.077	2.63 ± 0.058
WPIVQKTYEPVLNEDDL [RPN5]	2.32 ± 0.068	2.59 ± 0.11	1.85 ± 0.098	2.27 ± 0.071
IVLDEVRNKSYPVYTRL [DIS3]	2.93 ± 0.051	2.65 ± 0.056	2.99 ± 0.067	1.69 ± 0.027
ILSQQFDKIIKIREDHI [SRB8]	2.62 ± 0.066	3.05 ± 0.07	3.04 ± 0.052	2.84 ± 0.054
RLKDVEWVKLHRLLQRA [RMP1]	3.16 ± 0.085	3.13 ± 0.093	3.24 ± 0.06	3.02 ± 0.079
TSEEQTKFLAKNGVIPE [SWP82]	3.71 ± 0.26	3.6 ± 0.23		3.3 ± 0.098
IFTCQIMNLITNEPCGA [RPN4]	2.07 ± 0.087	2.61 ± 0.18	2.36 ± 0.21	
AITHMIDALGTEFSKND [SCL1]	2.47 ± 0.069	2.54 ± 0.044	2.7 ± 0.08	2.61 ± 0.031
KTKKEKGPNEEEKKKEH [RPN2]	3.05 ± 0.28	3.32 ± 0.16	3.49 ± 0.081	3.13 ± 0.19
